Measurements from US20250257110A1.

Target: TAG72 antigen (tumor associated glycoprotein-72)
Assay: method not stated; scFv affinity toward TAG72 antigen

## original humanized CC49 scFv (IDEC)
  Kd: 33 nM
